Measurements taken from the RNAGym collection of RNA variant scans (doi:10.7554/elife.80360).

B1: Hairpin Ribozyme (parent)
chain: GUCCUCUUUCACGUGCGCGUGAAAGAGAGAAGUGAACCAGAGAAACACACGUUGUGGUAUAUUACCUGGUA

Variants of: B1
Assay: self-cleavage, relative activity (ratio to wild type); higher = more cleavage; co-transcriptional
U14G A28U gave a self-cleavage of 0.39. In the case of U14A A47C, the self-cleavage is reported as 0.482. Variant U14A A47U has a self-cleavage of 0.143. U14G G15A gave a self-cleavage of 0.932. Variant U14C A64G has a self-cleavage of 0.568. In the case of U14G A41U, the self-cleavage is reported as 1.05. For G13U A71G, the self-cleavage was 0.936. Variant G13U A71C has a self-cleavage of 1.22. For G15A A31C, the self-cleavage was 0.151. Variant G13U G17C has a self-cleavage of 0.494. In the case of U14G U62G, the self-cleavage is reported as 0.106. U14C G34A gave a self-cleavage of 0.988. Work on U14C G34U yielded a self-cleavage of 1.54. G15C A44G showed a self-cleavage of 0.146. G15A A64C showed a self-cleavage of 0.171. Variant G15A A64U has a self-cleavage of 0.233. G13C C46U showed a self-cleavage of 0.218. With G13C C46A the self-cleavage was 0.137. With U14G C65G the self-cleavage was 0.213. U14G A59G gave a self-cleavage of 0.121. In the case of G13C U33G, the self-cleavage is reported as 0.207. Variant G13C U33A has a self-cleavage of 0.0736. U14G U60C gave a self-cleavage of 1.23. U14C C16G gave a self-cleavage of 0.821. Work on U14C C16A yielded a self-cleavage of 0.922. Variant G13C G68C has a self-cleavage of 0.151. For G13C G68A, the self-cleavage was 0.219. With U14C G68U the self-cleavage was 0.13. U14C G68A showed a self-cleavage of 0.234. For U14A A41U, the self-cleavage was 1.04. U14A A41C showed a self-cleavage of 1.34. In the case of U14A C48U, the self-cleavage is reported as 0.123. In the case of U14A U70A, the self-cleavage is reported as 0.863. For G13C G19U, the self-cleavage was 0.752. Variant U14G C16U has a self-cleavage of 1.06. Variant U14G C16G has a self-cleavage of 0.548. Variant G13U U67C has a self-cleavage of 0.211. Variant G15C A45U has a self-cleavage of 0.191. G15C A45G gave a self-cleavage of 0.194. With U14G A49C the self-cleavage was 0. In the case of G13U G54U, the self-cleavage is reported as 0.588. For U14A U20A, the self-cleavage was 0.67. For U14G A64G, the self-cleavage was 0.407. With U14G G40A the self-cleavage was 0.289. U14G G40U showed a self-cleavage of 0.2. Work on G15A G25A yielded a self-cleavage of 0.576. In the case of U14A C65U, the self-cleavage is reported as 0.292. For U14A C65G, the self-cleavage was 0.323. Work on G13U U52C yielded a self-cleavage of 0.655. Variant G15A A23G has a self-cleavage of 0.862. In the case of U14A A49U, the self-cleavage is reported as 0.13. For G15A A28U, the self-cleavage was 0.588. Work on G15A U62A yielded a self-cleavage of 0.177. Work on G15A U62G yielded a self-cleavage of 0.109. In the case of U14A C38G, the self-cleavage is reported as 0.0908. G13U U62C gave a self-cleavage of 0.291. Variant G13U U62G has a self-cleavage of 0.102. With G13C C16U the self-cleavage was 0.573. Work on U14G G21U yielded a self-cleavage of 0.625. U14A C46A showed a self-cleavage of 0.232. Variant U14A C46G has a self-cleavage of 0.108. In the case of U14C A47G, the self-cleavage is reported as 0.118. U14G A39C showed a self-cleavage of 0.393. U14G A23U gave a self-cleavage of 0.68. U14G A23C showed a self-cleavage of 0.754. In the case of G15A C48G, the self-cleavage is reported as 0.0967. Work on G13U G51A yielded a self-cleavage of 0.745. For G13C G27U, the self-cleavage was 0.19. G13U A39U showed a self-cleavage of 0.257. With G13U A39C the self-cleavage was 0.498. G15A C18G gave a self-cleavage of 0.886. Work on G13C G29A yielded a self-cleavage of 0.106. Variant U14G A22C has a self-cleavage of 0.75. U14G G68A gave a self-cleavage of 0.32. Work on U14G G68U yielded a self-cleavage of 0.333. Work on G15A A45C yielded a self-cleavage of 0.0834. G15A A45U showed a self-cleavage of 0.204. Work on U14C G17C yielded a self-cleavage of 0.582. With G13U G27C the self-cleavage was 0.19. In the case of G15A G29U, the self-cleavage is reported as 0.0945. For G13C A44U, the self-cleavage was 0.137. With G13C A44C the self-cleavage was 0.281. For U14G U67G, the self-cleavage was 0.243. U14C G56A showed a self-cleavage of 0.143. G15C A30U gave a self-cleavage of 0.293. In the case of U14C U33G, the self-cleavage is reported as 0.191. In the case of U14C U33C, the self-cleavage is reported as 0.0775. G15A G27A gave a self-cleavage of 0.541. Work on G13C U55A yielded a self-cleavage of 0.196. Variant U14C A30U has a self-cleavage of 0.148. In the case of U14C A30G, the self-cleavage is reported as 0.116. For G15A A41G, the self-cleavage was 0.92. Work on U14A G15A yielded a self-cleavage of 1. Variant U14A G15U has a self-cleavage of 1.17. U14A G15C showed a self-cleavage of 1.06. In the case of G13U C66A, the self-cleavage is reported as 0.176. With G13U C66G the self-cleavage was 0.11. With U14C U60G the self-cleavage was 0.727. G13U C65A gave a self-cleavage of 0.845. Work on G13U A30G yielded a self-cleavage of 0.191. U14C G27C showed a self-cleavage of 0.078. Variant U14C U53A has a self-cleavage of 1.18. Variant U14C U53C has a self-cleavage of 0.675. For U14C U53G, the self-cleavage was 0.936. U14A A26U showed a self-cleavage of 0.503. With G13U A26G the self-cleavage was 0.675. G13C U58A gave a self-cleavage of 0.35. Variant G13C U58C has a self-cleavage of 0.869. G15A showed a self-cleavage of 0.906. In the case of G15C, the self-cleavage is reported as 1.03. U14G U52A showed a self-cleavage of 1.02. Work on U14G U52C yielded a self-cleavage of 0.966. Work on U14A G42U yielded a self-cleavage of 0.308. U14A G42C gave a self-cleavage of 0.281. G15A G17U showed a self-cleavage of 1.05. U14C C66A showed a self-cleavage of 0.223. Variant U14C U58G has a self-cleavage of 0.545. For U14A C37G, the self-cleavage was 0.295. U14A C37U gave a self-cleavage of 0.481. In the case of G13U A36G, the self-cleavage is reported as 0.65. U14C A45C showed a self-cleavage of 0.206. With U14C A45G the self-cleavage was 0.0672. G15A A61G gave a self-cleavage of 0.18. G13C U67G showed a self-cleavage of 0.281. G13C U67C gave a self-cleavage of 0.126. Work on G15C A31U yielded a self-cleavage of 0.105. In the case of G15C A31G, the self-cleavage is reported as 0.692. Variant G13C U63A has a self-cleavage of 0.173. In the case of U14A A22C, the self-cleavage is reported as 0.829. G13U A23G gave a self-cleavage of 0.675. Variant G15C A26G has a self-cleavage of 1.03. In the case of G15A U52C, the self-cleavage is reported as 0.916. With U14A A39U the self-cleavage was 0.408. U14A A39C gave a self-cleavage of 0.515. Work on U14A U52A yielded a self-cleavage of 1.03. In the case of G13U A31U, the self-cleavage is reported as 0.109. For G13U A31G, the self-cleavage was 0.499. For G15A U20C, the self-cleavage was 0.864. With G15A U20A the self-cleavage was 0.847. With G15A U33G the self-cleavage was 0.136. In the case of U14A G19C, the self-cleavage is reported as 0.819. In the case of U14A G19U, the self-cleavage is reported as 0.736. G15C A47C gave a self-cleavage of 0.295. U14G C50A gave a self-cleavage of 0.307. Variant G15A G21A has a self-cleavage of 0.831. With G15A G21C the self-cleavage was 0.798. Variant U14G A35G has a self-cleavage of 0.715. U14G A35U showed a self-cleavage of 0.49. Variant U14G A35C has a self-cleavage of 0.805. Variant G13U G68C has a self-cleavage of 0.19. In the case of G13C G17U, the self-cleavage is reported as 0.492. In the case of G13C C50G, the self-cleavage is reported as 0.278. Work on G13U C16U yielded a self-cleavage of 0.818. For U14C G57C, the self-cleavage was 0.0473. Variant U14C G57A has a self-cleavage of 0.215. U14G A30G gave a self-cleavage of 0.0762. For U14A U58G, the self-cleavage was 0.505. Variant U14A U58A has a self-cleavage of 0.792. In the case of U14A U58C, the self-cleavage is reported as 0.78. In the case of G15A U67A, the self-cleavage is reported as 0.188. Variant U14A A59C has a self-cleavage of 0.179. U14A G56A gave a self-cleavage of 0.0617. With U14A G56U the self-cleavage was 0.205. Variant U14A G56C has a self-cleavage of 0.168. For U14G G27A, the self-cleavage was 0.189. Work on G13U A64C yielded a self-cleavage of 0.267. Variant G13U A64G has a self-cleavage of 0.533.
